Measurements from patent US20160038588A1, “Myostatin Antagonism in Human Subjects” (AMGEN INC., priority 2013, published 2016).

Molecular target: T1, myostatin (Homo sapiens, UniProt O14793)
T1 construct: To produce mature myostatin, the pooled promyostatin was enzymatically cleaved between the propeptide and mature myostatin C terminal; made in house
T1 sequence (O14793 267-375): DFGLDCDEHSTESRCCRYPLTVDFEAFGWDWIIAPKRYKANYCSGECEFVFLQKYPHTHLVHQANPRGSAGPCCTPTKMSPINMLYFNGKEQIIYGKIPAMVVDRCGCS
Experiment: BIAcore affinity analysis on immobilized myostatin
Type: binding
Details: Biacore assay
Source text: The antagonists including the binding agents described herein can be tested for their ability to bind myostatin and inhibit or block myostatin activity. Any number of assays or animal tests may be used to determine the ability of the agent to inhibit or block myostatin activity. Several assays used for characterizing the peptides and peptibodies of the present invention are described in the Examples below. One assay is the C2C12 pMARE-luc assay which makes use of a myostatin-responsive cell line (C2C12 myoblasts) transfected with a luciferase reporter vector containing myostatin/activin response elements (MARE). Exemplary peptibodies are assayed by pre-incubating a series of peptibody dilutions with myostatin, and then exposing the cells to the incubation mixture. The resulting luciferase activity is determined, and a titration curve is generated from the series of peptibody dilutions. The IC50 (the concentration of peptibody to achieve 50% inhibition of myostatin activity as measured by luciferase activity) was then determined. […]
Direct binding assays were used to screen and rank the peptibodies in order of their ability to bind to immobilized myostatin. […] Peptibody binding kinetic parameters including ka (association rate constant), kd (dissociation rate constant) and KD (dissociation equilibrium constant) were determined using the BIA evaluation 3.1 computer program (Biacore, Inc.). […]

Kd: ~7 nM
B1: ActRIIB/Fc: soluble receptor fusion protein actRIIB/Fc (R &D Systems) (protein)
chain: SGRGEAETRECIYYNANWELERTNQSGLERCEGEQDKRLHCYASWRNSSGTIELVKKGCWLDDFNCYDRQECVATEENPQVYFCCCEGNFCNERFTHLPEAGGPEVTYEPPPTAPT
modifications: left off: a dimerising Fc or GST
